{"source": "patent US10206896B2", "about": "“Method of treating delayed healing of a wound associated with diabetes” (KUWAIT UNIVERSITY, priority 2014, dated 2019)", "molecules": {"B1": {"name": "EGF: mitotic growth factor (protein, UniProt P01133 23-1207, looked up)", "Pro-epidermal growth factor": "PQHWSCPEGTLAGNGNSTCVGPAPFLIFSHGNSIFRIDTEGTNYEQLVVDAGVSVIMDFHYNEKRIYWVDLERQLLQRVFLNGSRQERVCNIEKNVSGMAINWINEEVIWSNQQEGIITVTDMKGNNSHILLSALKYPANVAVDPVERFIFWSSEVAGSLYRADLDGVGVKALLETSEKITAVSLDVLDKRLFWIQYNREGSNSLICSCDYDGGSVHISKHPTQHNLFAMSLFGDRIFYSTWKMKTIWIANKHTGKDMVRINLHSSFVPLGELKVVHPLAQPKAEDDTWEPEQKLCKLRKGNCSSTVCGQDLQSHLCMCAEGYALSRDRKYCEDVNECAFWNHGCTLGCKNTPGSYYCTCPVGFVLLPDGKRCHQLVSCPRNVSECSHDCVLTSEGPLCFCPEGSVLERDGKTCSGCSSPDNGGCSQLCVPLSPVSWECDCFPGYDLQLDEKSCAASGPQPFLLFANSQDIRHMHFDGTDYGTLLSQQMGMVYALDHDPVENKIYFAHTALKWIERANMDGSQRERLIEEGVDVPEGLAVDWIGRRFYWTDRGKSLIGRSDLNGKRSKIITKENISQPRGIAVHPMAKRLFWTDTGINPRIESSSLQGLGRLVIASSDLIWPSGITIDFLTDKLYWCDAKQSVIEMANLDGSKRRRLTQNDVGHPFAVAVFEDYVWFSDWAMPSVMRVNKRTGKDRVRLQGSMLKPSSLVVVHPLAKPGADPCLYQNGGCEHICKKRLGTAWCSCREGFMKASDGKTCLALDGHQLLAGGEVDLKNQVTPLDILSKTRVSEDNITESQHMLVAEIMVSDQDDCAPVGCSMYARCISEGEDATCQCLKGFAGDGKLCSDIDECEMGVPVCPPASSKCINTEGGYVCRCSEGYQGDGIHCLDIDECQLGEHSCGENASCTNTEGGYTCMCAGRLSEPGLICPDSTPPPHLREDDHHYSVRNSDSECPLSHDGYCLHDGVCMYIEALDKYACNCVVGYIGERCQYRDLKWWELRHAGHGQQQKVIVVAVCVVVLVMLLLLSLWGAHYYRTQKLLSKNPKNPYEESSRDVRSRRPADTEDGMSSCPQPWFVVIKEHQDLKNGGQPVAGEDGQAADGSMQPTSWRQEPQLCGMGTEQGCWIPVSSDKGSCPQVMERSFHMPSYGTQTLEGGVEKPHSLLSANPLWQQRALDPPHQMELTQ", "modifications": "Pro-epidermal growth factor"}}, "key": {"[1]": {"test_system": "control fibroblasts (CFs)", "assay": "BrdU incorporation into DNA (cell proliferation) in control fibroblasts", "assay_type": "cell-based, Wistar rat", "conditions": "24-hr serum starved CFs, vs starved cells; dose providing the maximum response (IGF 50 ng, PDGF 1 nM, EGF 100 ng)", "experimental": "(§1) Cell culture and HP treatment. […] Assessment of key fibroblast functions essential for wound healing. To assess cell proliferation, fibroblasts were seeded into a 96-well plate at a density of 1×10^4 per well and were allowed to adhere overnight in DMEM medium supplemented with 10% FCS. After arrest by incubation in serum-free medium for 24 hours, the cells were exposed to growth factors, and the incorporation of bromodeoxyuridine (BrdU) into DNA was determined using the manufacturer's protocol (Roche Diagnostics). Similarly, for the in vitro wound (migration) experiments, cultured fibroblasts were grown in six-well plates until they reached confluence. The medium was removed, the cells were washed with PBS 3× before culturing was continued in serum-free DMEM containing 0.5% BSA for an additional 24 hours. […] The rate of wound healing was quantified as described in the literature […] Caveolin-1 protein expression and PDGF-induced phosphorylation of Akt (20 min) and ERK (10 min) in 24-hr serum starved fibroblasts were determined using a Western-blotting-based technique. A proliferation index encompassing BrdU incorporation into DNA and cell cycle progression was evaluated in response to various growth factors (e.g., IGF, 50 ng; PDGF, 1 nM; EGF, 100 ng) in 24-hr serum starved fibroblast. […]"}, "[2]": {"test_system": "control fibroblasts (CFs)", "assay": "In vitro scratch wound (cell migration) in control fibroblasts", "assay_type": "cell-based, Wistar rat", "conditions": "24 hrs post-injury", "experimental": "as §1"}}}
{"molecule": "B1", "values": [{"measurement": "increase of proliferation rate (BrdU incorporation)", "setting": "[1]", "value": "~7.1", "unit": "fold"}, {"measurement": "number of cells that migrated into the cell-free wound zone", "setting": "[2]", "value": "markedly increased"}]}
